Test system: K4 kissing-loop RNA reporter
Assay: apparent KD of K4 kissing-loop reporter; higher = weaker reporter binding
Conditions: Eterna round: R107
Protocol: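 RNA-MaP round R107: designed RNA switches with theophylline, tryptophan, arginine or FMN aptamers are transcribed on-chip within common flanks. They are titrated with a labelled K4 kissing-loop RNA reporter in RNA-MaP buffer (100 mM Tris pH 7.5, 80 mM KCl, 4 mM MgCl2), without ligand or with the indicated ligand. Median apparent KD per design.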

[1] = input ligand: theophylline 20 uM
[2] = input ligand: tryptophan 2.4 mM
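Also: bound reporter read as fluorescence of individual clusters on recovered sequencing chips by microscopy, with normalized cluster intensities fitted with a binding model.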

| Sequence | apparent KD of K4 kissing-loop reporter (input ligand: FMN 200 uM) [nM] | apparent KD of K4 kissing-loop reporter (input ligand: arginine 13.2 mM) [nM] | apparent KD of K4 kissing-loop reporter (input ligand: none) [nM] | apparent KD of K4 kissing-loop reporter [1] [nM] | apparent KD of K4 kissing-loop reporter [2] [nM] |
| --- | --- | --- | --- | --- | --- |
| GUGCGCGCGGCGGCCGCCACUCGCAUGAGAGUGAUGUUCUCACCGUGACCGUAAGGUCGCGGUGUGAGGACCGGGCCGGGCUGCG [#2 Same State - Tryptophan B Attempt #24 (HarryS)] | 181 | 114 | 207 | 59.5 | 270 |
| GUGCGCGGUGCGGCCGCCACUCGGAUGCGAGUGAUGUUCGCGGGACGGACGCAAGUCCGUCAUUCGAGGACCGGGCAUGGCUGCA [#2 Same State - Tryptophan B Attempt #6 (HarryS)] | 197 | 196 | 242 | 183 | 137 |
| GUGCGGCUAGUGAUGUUGGUUGUGUGGGAAGGAGCGCAGAUUCAUGCAGGUAGGUCGCCCACACCUCUGAAAGGAGGCUAAUUCA [KL-SSArg-A16] | 453 | 300 | 315 | 368 | 331 |
| GUGCGGCUAGUGAUGUUGGUUGUGUGGGAAGGAGCGCAGAUUCAUGCAGGUAGGUCGCCCACACGUCUGAAAGGAUGAUAAUUCA [#12 K4 Arginine A Same State] | 409 | 306 | 354 | 407 | 350 |
| GUGGCACGAAAGUGCCACGCAUCCUCUCCCUAGGAUAUCUGGAAACAGAGAAGGAGGUCAUGAGUGAUGUUCAUCCAGAGGAUGC | 258 | 677 | 756 | 738 | 491 |
| GUUACGCAUGGAAGGAGCGCAGGCUCAACUUGAAGCUCAGUGAUGUUGAGCAAAUUAAAACUGCAGGUAGGUCGCCAUGUGUAAC [Ex Arginine B K4 27] | 548 | 474 | 655 | 644 | 448 |
| GUUACGCAUGGAAGGAGCGCAUGCUCAACAAUAAGCUCAGUGAUGUUGAGCAAAAUUAAAAUGCAGGUAGGUCGCCAUGUGUAAC [Ex Arginine B K4 28] | 542 | 519 | 576 | 528 | 555 |
| GUUAUGGACCUGGAUACCAGCUGGUACAAGGUCGGUCUACAUGAGUGAUGUUCAUGUGUCAGCCCUUGGCAGCCAGCAACCGGCA [KL-XTheo-B10] | 90.3 | 97.1 | 101 | 119 | 86.2 |
| UAAGAAUAAGUAGCAGUGAUGUUGCUACUACGAGGACCGGUACGGCCGCCACUCGAGUCCUCGAAACAUCACUGAACGAGGAAUA [(H,1)-(H,2)-(Trp1)-(Trp2)-(T)'-(H)'-(T)''] | 231 | 150 | 201 | 136 | 358 |
| UAAGAGGACCACUGCAAGAGUCCUCGAAUACGAGGACCGGUACGGCCGCCACUCGAUAACUUGUAGUGAUGUUGCAAGUAAGAAU [BrourdMod 1 - Jieux - Same State Tryptophan A] | 71.2 | 79.2 | 79.4 | 79.2 | 42.9 |
| UAAGAGGACCACUGCGAGAGUCCUCGAAUACGAGGACCGGUACGGCCGCCACUCGAUAAUUUGCAGUGAUGUUGCAAGUAAGAAU [BrourdMod 6 - Jieux - Same State Tryptophan A] | 64.5 | 114 | 82.4 | 104 | 48.6 |
| UAAGAGUCUCUGCAAUUAGCAGAGACUCAACGAGGACCGGUACGGCCGCCACUCGGGUCCUAGAGUGAUGUUCUAAUAAUAUAAU [AK1.1 SS Tryptophan A] | 273 | 359 | 548 | 425 | 176 |
| UACAUUGCAGUCUUCUUCGUCCUAGAUGACUAGGAUAUCAGGAAACUGAGAAGGAGUCACUGCAGUGAUGUUGCAGCUAGGACGA [KL-SSFMN-A9] | 110 | 118 | 110 | 121 | 105 |
| UACUAUAGUGAUGUUAUAGAUAAACCAGAUACCAGUGUGACAUAACACCCUUGGCAGCUGAUAAGGGAACAUAUGAAAACAUAUG [AstroSSTHeAED5.17] | 146 | 120 | 132 | 120 | 128 |
| UACUUUAAUUUAUAACUAUCUUUAUUUUGUCAGGAUAUCGUAUAGUCGAGAAGGGACUCUAUCAAGUGAUGUUUGAUAUAUCGUU [JR_SSFMNA_Sub025] | 140 | 155 | 131 | 147 | 112 |
| UAGCGUAUCAGAGGAUAUGAUAUGUUAUGCAGUGAUGUUGCAUGAUGUAGCAGAAUUCUGAGUGUAUCAGAAGGCUGAUAUGCUA [FMN B Ex t3] | 171 | 87.8 | 90.5 | 78.9 | 88.6 |
| UAGGAGUGAUGUUCCUAUAGCAGGUAGGAAGGAGCGCCCAUUUGGGCAGGUAGGUCGCCUACCGGCCCUAAGUUAAACCUUAGGC [Rariar] | 99.6 | 111 | 92.6 | 109 | 89 |
| UAGGGCCCUGGAGGAUAUGAGUCUAGUGAUGUUAGGCGGUCCAUGCGCGUGGCGCGUUAUGCCCUUUUAGAAGGCCAGGGCCCUA [#2 Exclusion - FMN B Attempt #17 (HarryS)] | 119 | 72.8 | 99 | 99.3 | 92.4 |
| UAGGGUUGAAAAGGAUAUUUACCCUAUGUCAACGAGUGAUGUUCGUGGACAUUAGGCACAACUCGUAAAGAAGGUUUCCAGACUC [theeternabot_sameState_KL_FMN_B_39] | 93 | 87.5 | 95 | 97.5 | 95.7 |
| UAGUAUAAUCUGUCGUUUACAAUAUUUAGUCAGGAUAUCGUAUAUUCGAGAAGGGACACUAUCUAGUGAUGUUAGAUAUUUCUUU [JR_ExcFMNA_Sub013] | 46.8 | 78.2 | 54.9 | 71.4 | 52.8 |
| UAGUCAUACAGAGGAUAUCGUAUGAGUGAUGUUCAUACGACAUAAUCGAGUUGUAUCGAUGUUCGACGAGAAGGCUGUAUGACUA [FMN B Ex t1b] | 210 | 89.6 | 118 | 106 | 111 |

| Sequence | apparent KD of K4 kissing-loop reporter (input ligand: FMN 200 uM) [nM] | apparent KD of K4 kissing-loop reporter (input ligand: arginine 13.2 mM) [nM] | apparent KD of K4 kissing-loop reporter (input ligand: none) [nM] | apparent KD of K4 kissing-loop reporter [1] [nM] | apparent KD of K4 kissing-loop reporter [2] [nM] |
| --- | --- | --- | --- | --- | --- |
| UAUAGACAAGUGAUGUUUGUCAUAUCCGAAGGAGCGUCUUCUAAGACAGGUAGGUCGCGGAUUAAUUUUGUUAUGAUACUAUUUA [JR_SSArginiA_Sub016] | 122 | 120 | 126 | 133 | 104 |
| UAUAUACAUUUAUUAAUUAAAGGUUCAGAAGGAGCGUGAAUUAACACAGGUAGGUCGCUGAGCGAGUGAUGUUCGCUAUAUGGAA [JR_ExcArginiA_Sub006] | 54.1 | 69.3 | 57 | 81 | 50.4 |
| UAUAUAGUGACGGCCGCCACUAUAUUAAUGUUUUUGUUAGAGUGAUGUUUUGAUUAAUAUUUUUAUAGGACCGGGUUAUAUGUUA [xzzxmullin] | 657 | 403 | 634 | 628 | 558 |
| UAUAUAGUGACGGCCGCCACUAUAUUAAUGUUUUUGUUAGAGUGAUGUUUUGUUUAAUAUUUUUAUAGGACCGGGUUAUAUGUUA [zsqqxmullin] | 569 | 338 | 641 | 557 | 580 |
| UAUCUUUACUGAAGGAGCGAGCAUUUUGGAGUGAUGUUCCGAGCGAGUGAUGUUCGCAUAGCUCAGGUAGGUCGCAGUGGGAAAA [Same State Arginie B GF 15] | 152 | 149 | 143 | 162 | 138 |
| UAUUCUUAUCUUAGUUGAUUUCUAAUUAAACGAGGACCGGUACGGCCGCCACUCGGUUAUGAGUGAUGUUCAUGGAAUUACAUAA [JR_SSTryptoA_Sub020] | 275 | 481 | 413 | 548 | 143 |
| UCACGAGUGAUGUUCGUCGCAAUCACCGAAGGAGCGGGCGAAAGCCCAGGUAGGUCGCGGUAGAAUAAUGAUUUUAUUCGAUUGC [Same State Arginine A GF 26] | 786 | 602 | 756 | 613 | 568 |
| UCCUGCAAUCGCCCACGAAAGUGGAUCGAUACCAGAGUCGAAAGACUCCCUUGGCAGCGAGUGAUGUUCGAAGCAGGUAAAUAAA | 771 | 612 | 765 | 605 | 637 |
| UCCUGCAAUCUGCCACGAAAGUGGGUUGAUACCAGAGUCGAAAGACUCCCUUGGCAGCGAGUGAUGUUCGUUGCAGGUGAAUAAA [MatMod 9 - Jieux - Exclusion - Theophylline A] | 118 | 264 | 444 | 309 | 323 |
| UCGAAAUGCGACUCCUAGUUACACCGGGAAGGAGCGUGGAUAACCGCAGGUAGGUCGCCCGGAAGCCGGACCAGUGAUGUUGGUC [Exclusion Arginine A Gf 28] | 207 | 177 | 203 | 274 | 155 |
| UCGAAAUGCGUCUCCUAGUUACUCCGGGAAGGAGCGUGGAUAACCGCAGGUAGGUCGCCCGGAAGCCGGACCAGUGAUGUUGGUC [Exclusion Arginine A Gf 29] | 216 | 179 | 221 | 186 | 182 |
| UCGAACGAUGGAAGGAGCGCUCGUCAGUCCUGCGAGUGAUGUUCGUGGGUAAAUAGUCGCGAGCAGGUAGGUCGCCAUCUUGGGC [Reriat] | 153 | 132 | 151 | 136 | 134 |
| UCGAGUUGACGAAAAGUCAACUCGUGAGAUACCAGUGACGAAAGUCACCCUUGGCAGCUCACUGCCAGUGAUGUUGGUGUAUAGA [#06 K4 Theophylline A Same State] | 856 | 840 | 1030 | 996 | 955 |
| UCGGCGUACGGGCGGGUAGUGAUGUUGCUCCGAGGACCGGUACGGCCGCCACUCGAGGUACCAGUUCAUAGAACCUGGCACAUCA [theeternabot_exclusion_KL_Trp_A_23] | 409 | 296 | 541 | 261 | 266 |
| UCGGUAUAGUGAUGUUAUAUAGAGAGUGAUACCAGUUUAGAGAGAAACCCUUGGCAGCAUAGAAGAGUAUCAUUGGAGGAGGAGG [#20 K4 Theophylline A Exclusion] | 455 | 417 | 387 | 336 | 301 |
| UCUAACAAAUCGGCCGCCACUGAAAUAACCCAGGAGUGAUGUUCCAUCGUCCUAGACUACUCUUCCAGGACCGGGAUCUGUGUUC [theeternabot_exclusion_KL_Trp_B_25] | 298 | 348 | 529 | 472 | 284 |
| UCUAGUUCUACGGCCGCCACUAUCGAGCACGGGUAUUAGUGAUGUUGAGGUCGUGUCUCCCUCCCUAGGACCGGGUAGAUCUUAG [theeternabot_sameState_KL_Trp_B_4] | 890 | 482 | 667 | 629 | 557 |
| UCUCGGGCCAGUGAUGUUGGCGGCUAGUGGCGAGGACCGGUACGGCCGCCACUCGGCGCAGCAGCGGAGUGAUGUUUCGUGAGUA [Same State Tryptophan A GF 17] | 363 | 301 | 377 | 441 | 198 |
| UCUGGAGCAUAUGAUACCAGCAGUGAGAGACAGGAAGUAUAGUGAUGUUAUAUGAGAGAAUGCCCUUGGCAGCGUGUGCAGUGGG [SSTheophylB.O] | 119 | 157 | 108 | 119 | 75.2 |
| UCUGGUAUAUCUGAUACCAGAGUAUAGUAUCAAUUGCAUAUGGAGUGAUGUUCCAUACAACUCCCUUGGCAGCAGAUCUAUCUCU [Same State Theophylline B GF 24] | 219 | 249 | 246 | 286 | 195 |
| UCUGUACCGGGAAGGAGCGUGAAUGAGAAUGGAUAUAGUGAUGUUAUGUAUACGAACGAAUCGCAGGUAGGUCGCCCGGAUCCCU [SSArgB.aA] | 674 | 380 | 653 | 474 | 467 |

Reference: the supplement of paper PMC9170038
